Reference: EP4725963A1 (Jiangsu Hengrui Pharmaceuticals Co., Ltd., dated 2026)
Where two headings read alike, the source gives them in different places.

Assays:
hNPR2 = target: T1, hNPR2 (human, UniProt P20594 23-458, limits assumed); assay: ELISA, plate coated with 4 µg/mL antigen
T1 construct: Commercial protein; construct not described; also called hNPR2 antigen
T1 sequence (looked up): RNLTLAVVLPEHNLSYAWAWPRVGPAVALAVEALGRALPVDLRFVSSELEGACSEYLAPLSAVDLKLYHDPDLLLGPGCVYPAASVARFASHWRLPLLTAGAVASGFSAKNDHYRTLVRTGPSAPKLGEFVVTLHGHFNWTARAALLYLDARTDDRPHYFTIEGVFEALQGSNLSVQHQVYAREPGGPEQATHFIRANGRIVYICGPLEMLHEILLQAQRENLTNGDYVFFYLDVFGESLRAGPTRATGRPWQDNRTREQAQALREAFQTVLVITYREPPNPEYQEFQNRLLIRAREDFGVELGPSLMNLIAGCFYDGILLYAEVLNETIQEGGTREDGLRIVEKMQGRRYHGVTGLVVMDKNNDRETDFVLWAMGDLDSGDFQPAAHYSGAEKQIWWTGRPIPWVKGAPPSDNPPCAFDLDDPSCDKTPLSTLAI

[1] = target: T2, fusion protein of the human NPR1 protein extracellular domain and human-IgG1-Fc (human); assay: ELISA, plate coated with 4 µg/mL hNPR1 antigen
T2 construct: also called hNPR1-hFc; hNPR1
T2 sequence (chain, as listed by the source limits assumed): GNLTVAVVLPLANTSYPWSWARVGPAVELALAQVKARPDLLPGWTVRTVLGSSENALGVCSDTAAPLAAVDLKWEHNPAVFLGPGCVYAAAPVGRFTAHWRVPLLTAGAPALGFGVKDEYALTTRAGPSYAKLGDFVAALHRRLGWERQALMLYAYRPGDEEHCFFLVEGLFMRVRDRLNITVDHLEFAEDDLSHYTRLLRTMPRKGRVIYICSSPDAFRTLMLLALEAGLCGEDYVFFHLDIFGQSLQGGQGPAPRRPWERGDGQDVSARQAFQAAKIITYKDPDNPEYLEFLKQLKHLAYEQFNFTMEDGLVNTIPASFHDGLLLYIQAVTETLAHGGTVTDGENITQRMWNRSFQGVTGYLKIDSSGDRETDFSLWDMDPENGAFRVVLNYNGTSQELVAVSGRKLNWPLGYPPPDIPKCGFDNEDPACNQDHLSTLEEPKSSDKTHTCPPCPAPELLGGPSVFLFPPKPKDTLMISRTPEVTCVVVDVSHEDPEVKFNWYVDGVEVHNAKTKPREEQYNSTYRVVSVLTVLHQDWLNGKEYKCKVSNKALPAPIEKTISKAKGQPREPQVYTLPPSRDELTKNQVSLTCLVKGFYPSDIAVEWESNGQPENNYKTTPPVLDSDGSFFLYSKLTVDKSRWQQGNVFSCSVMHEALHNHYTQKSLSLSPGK

[2] = target: T3, human NPR1 full-length protein overexpressed on CHO-K1 cells (human, UniProt P16066 33-1061); assay: cell-based or functional assay
T3 sequence: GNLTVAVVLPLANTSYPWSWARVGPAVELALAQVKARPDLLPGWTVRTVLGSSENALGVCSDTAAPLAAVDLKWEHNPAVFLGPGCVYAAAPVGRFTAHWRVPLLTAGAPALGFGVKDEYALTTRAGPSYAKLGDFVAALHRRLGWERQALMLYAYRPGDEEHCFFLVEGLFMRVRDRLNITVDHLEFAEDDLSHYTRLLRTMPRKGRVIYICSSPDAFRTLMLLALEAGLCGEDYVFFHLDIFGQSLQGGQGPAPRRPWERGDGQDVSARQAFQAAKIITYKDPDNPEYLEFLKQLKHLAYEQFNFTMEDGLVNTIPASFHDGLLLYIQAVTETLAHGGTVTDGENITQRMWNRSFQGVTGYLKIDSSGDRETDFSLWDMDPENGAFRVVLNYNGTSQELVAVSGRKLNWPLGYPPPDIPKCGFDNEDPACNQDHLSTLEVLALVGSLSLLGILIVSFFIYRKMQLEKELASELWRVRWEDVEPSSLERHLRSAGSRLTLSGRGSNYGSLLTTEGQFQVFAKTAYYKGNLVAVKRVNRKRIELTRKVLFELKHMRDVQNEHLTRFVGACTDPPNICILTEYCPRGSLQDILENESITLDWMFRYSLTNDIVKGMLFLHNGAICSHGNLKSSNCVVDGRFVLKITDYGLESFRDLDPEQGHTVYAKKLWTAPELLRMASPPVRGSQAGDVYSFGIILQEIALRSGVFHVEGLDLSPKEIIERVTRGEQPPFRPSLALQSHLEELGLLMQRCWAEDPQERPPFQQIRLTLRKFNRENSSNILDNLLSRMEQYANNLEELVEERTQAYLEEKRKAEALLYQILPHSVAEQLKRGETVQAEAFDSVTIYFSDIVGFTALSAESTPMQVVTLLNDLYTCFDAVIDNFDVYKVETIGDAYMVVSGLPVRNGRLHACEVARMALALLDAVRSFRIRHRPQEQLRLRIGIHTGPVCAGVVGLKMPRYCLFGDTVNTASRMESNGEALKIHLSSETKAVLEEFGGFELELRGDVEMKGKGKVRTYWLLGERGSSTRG

[3] = target: T3, human NPR1 full-length protein …; assay: cell-based or functional assay; remark: listed apart in the source
[4] = target: T3, human NPR1 full-length protein …; assay: cell-based or functional assay; remark: listed apart in the source
[5] = target: T3, human NPR1 full-length protein …; assay: cell-based or functional assay; remark: listed apart in the source
[6] = target: T3, human NPR1 full-length protein …; assay: cell-based or functional assay; remark: listed apart in the source
[7] = target: T3, human NPR1 full-length protein …; assay: flow cytometry on hNPR1-expressing CHO-K1 cells, antibody pre-mixed with 10 nM ANP
[8] = target: T4, cynomolgus monkey NPR1 full-length protein overexpressed on CHO-K1 cells (cynomolgus monkey); assay: flow cytometry on cNPR1-expressing CHO-K1 cells, antibody pre-mixed with 10 nM ANP
T4 construct: whole, on cells; also called cNPR1-CHOK1; cNPR1 CHO-K1

[9] = target: T3, human NPR1 full-length protein …; assay: cell-based or functional assay; remark: listed apart in the source
[10] = target: T3, human NPR1 full-length protein …; assay: flow cytometry on hNPR1-expressing CHO-K1 cells, without ANP
[11] = target: T4, cynomolgus monkey NPR1 full-length …; assay: flow cytometry on cNPR1-expressing CHO-K1 cells, without ANP

B1: Hu135H3L1 (antibody, human IgG1, kappa, L234A L235A, V domains shown)
VH: DVKLVESGEGLVKPGGSLRLSCAASGFSISTYGMSWVRQAPGKRLEWVAYINSGGNYIYYADSVKGRFTISRDNAKNSLYLQMNSLRAEDTAVYYCTRDRTTIVVHWYFDVWGQGTTVTVSS
VL: DIQLTQSPSSLSASVGDRVTITCSASSSLNFMHWYQQKPGKSPKRWIYDTSKLASGVPSRFSGSGSGTDYTLTISSLQPEDFATYYCHQRSSTFGGGTKVEIKR
notes: Humanized, human IgG1 LALA/kappa; also called Hul35H3L1
B1 was tested, and the binding result (hNPR2) was “no binding (tested: 20 µg/mL (highest concentration))”, the EC50 [1] was 0.02 nM and the “Ratio (without ANP) of NPR1 antigens remaining on the cell surface after endocytosis to the initial number, 10 min, 20 µg/mL” value [2] was 0.85 ratio. The “Ratio (without ANP) of NPR1 antigens remaining on the cell surface after endocytosis to the initial number, 1 h, 20 µg/mL” value [2] was 0.67 ratio, the “Ratio (without ANP) of NPR1 antigens remaining on the cell surface after endocytosis to the initial number, 7 hrs, 20 µg/mL” value [2] was 0.63 ratio and the “Ratio (without ANP) of NPR1 antigens remaining on the cell surface after endocytosis to the initial number, 24 hrs, 20 µg/mL” value [2] was 0.76 ratio. The “cGMP production: EC50” value [3] was 171 nM, the “cGMP production: Emax” value [3] was 0.43 and the “cGMP production: Emin” value [3] was 0.179.

B2: Hu102H4L6 (antibody, human IgG1, kappa, L234A L235A, V domains shown)
VH: DVKLVESGEGLVKPGGSLRLSCAASGFTFSSYAMSWVRQAPGKRLEWVAYISRGGDYIYYADSVKGRFTISRDNAKNSLYLQMNSLRAEDSAVYYCTRDQTTVVVHWYFDVWGQGTTVTVSS
VL: DIQLTQSPSSLSASVGDRVTITCSASSSINYMHWYQQKPGKSPKRWIYDTSKLASGVPSRFSGSGSGTDYTLTISSLQPEDFATYYCHQRNSYTFGGGTKVEIKR
notes: Humanized, human IgG1 LALA/kappa; also called Hul02H4L6
For B2, the binding result (hNPR2) was “no binding (tested: 20 µg/mL (highest concentration))”, the EC50 [1] was 1.32 nM and the “Ratio (without ANP) of NPR1 antigens remaining on the cell surface after endocytosis to the initial number, 10 min, 20 µg/mL” value [2] was 1.14 ratio. For the same binder, the “Ratio (without ANP) of NPR1 antigens remaining on the cell surface after endocytosis to the initial number, 1 h, 20 µg/mL” value [2] was 0.58 ratio, the “Ratio (without ANP) of NPR1 antigens remaining on the cell surface after endocytosis to the initial number, 7 hrs, 20 µg/mL” value [2] was 0.53 ratio and the “Ratio (without ANP) of NPR1 antigens remaining on the cell surface after endocytosis to the initial number, 24 hrs, 20 µg/mL” value [2] was 0.73 ratio. For the same binder, the “cGMP production: EC50” value [4] was 45.9 nM, the “cGMP production: Emax” value [4] was 0.65 and the “cGMP production: Emin” value [4] was 0.17.

B3: Hu140H5L5-11 (antibody, human IgG1, kappa, L234A L235A, V domains shown)
VH: QVQLVQSGAEVKKPGASVKVSCKASGYTFTSYWMHWVRQAPGQGLEWMGRIDPNSGVTKYNEKFKSRVTLTVDKPSSPAYMELSSLRSEDTAVYYCARSGGLRRYFDVWGQGTTVTVSS
VL: EIVLTQSPATLSLSPGERAQLSCSASSSVSYMYWYQQKPGQAPRLLIYDTYNLASGVPDRFSGSGSGTSYTLTISRLEPEDFAVYYCQQWSSYPPTFGAGTKLEIKR
notes: Humanized, human IgG1 LALA/kappa
B3 was tested, and the binding result (hNPR2) was “no binding (tested: 20 µg/mL (highest concentration))”, the “cGMP production: EC50” value [5] was 36 nM and the EC50 [1] was 8.65 nM. The “Ratio (without ANP) of NPR1 antigens remaining on the cell surface after endocytosis to the initial number, 10 min, 20 µg/mL” value [2] was 1.31 ratio, the “Ratio (without ANP) of NPR1 antigens remaining on the cell surface after endocytosis to the initial number, 1 h, 20 µg/mL” value [2] was 0.86 ratio and the “Ratio (without ANP) of NPR1 antigens remaining on the cell surface after endocytosis to the initial number, 7 hrs, 20 µg/mL” value [2] was 1.11 ratio. For the same binder, the “Ratio (without ANP) of NPR1 antigens remaining on the cell surface after endocytosis to the initial number, 24 hrs, 20 µg/mL” value [2] was 1.02 ratio.

B4: Hu128H3L2 (antibody, human IgG1, kappa, L234A L235A, V domains shown)
VH: EVQLVQSGAEVKKPGASVKVSCKASGYTFTSYWMHWVRQAPGQGLEWMGRIDPNSGVTKYNEKFKSRVTLTVDKPSSPAYMELSSLRSEDTAVYYCARSSYLGRYFDVWGQGTTVTVSS
VL: EIVLTQSPATLSLSPGERATLSCSATSSVSYMYWYQQKPGSSPRLLIYDTYNLASRIPARFSGSGSGTDYTLTISRLEPEDFAVYYCQQWSSYPPTFGQGTKLEIKR
With B4 the “cGMP production: EC50” value [6] was 4.6 nM.

B5: Hu128H3L1 (antibody, human IgG1, kappa, L234A L235A, V domains shown)
VH: EVQLVQSGAEVKKPGASVKVSCKASGYTFTSYWMHWVRQAPGQGLEWMGRIDPNSGVTKYNEKFKSRVTLTVDKPSSPAYMELSSLRSEDTAVYYCARSSYLGRYFDVWGQGTTVTVSS
VL: EIVLTQSPATLSLSPGERATLSCSATSSVSYMYWYQQKPGQAPRLLIYDTYNLASRIPARFSGSGSGTDYTLTISRLEPEDFAVYYCQQWSSYPPTFGQGTKLEIKR
In the case of B5, the “cGMP production: EC50” value [6] is reported as 5.8 nM.

B6: Hu140H5L5 (antibody, human IgG1, kappa, L234A L235A, V domains shown)
VH: QVQLVQSGAEVKKPGASVKVSCKASGYTFTSYWMHWVRQAPGQGLEWMGRIDPNSGVTKYNEKFKSRVTLTVDKPSSPAYMELSSLRSEDTAVYYCARSGGLRRYFDVWGQGTTVTVSS
VL: EIVLTQSPATLSLSPGERATLSCSASSSVSYMYWYQQKPGQAPRLLIYDTYNLASGVPARFSGSGSGTSYTLTISRLEPEDFAVYYCQQWSSYPPTFGAGTKLEIKR
For B6, the “cGMP production: EC50” value [5] was 40.9 nM.

B7: CHI-127 (antibody, human IgG1, kappa, V domains shown)
VH: QAYLQQSGPELVKPGASVKISCKASGYSFTGYFMNWVMQSHGKSLEWIGRINPYNGDTFYNQKFKGKATLTVDKSSSTVHMELRSLASEDSAVYYCARRGYGNRGYWYFDVWGAGTTVTVSS
VL: NIVLTQSPASLAVSLGQRATISCRASESVDSYGNSFMHWYQQKPGQPPKVLIYLASTLESGVPARFSGSGSRTDFTLTIDPVEADDAATYYCQQNNEDPLTFGAGTKLELKR
notes: Chimeric human IgG1/kappa; also called NPR1-CHAb-SFM-127-1; chimeric antibody of murine antibody 127
B7 was tested, and the EC50 [7] was 1.74 nM, the EC50 [8] was 1.28 nM and the “cGMP production: EC50” value [9] was 42.7 nM. The “cGMP production: Emax” value [9] was 0.43, the “cGMP production: Emin” value [9] was 0.077 and the EC50 [10] was 1.73 nM. The EC50 [11] was 1.19 nM.

B8: CHI-135 (antibody, human IgG1, kappa, V domains shown)
VH: DVKLVESGEGLVKPGGSLKLSCVASGFSISTYGMSWVRQTPEKRLEWVAYINSGGNYIYYADTVKGRFTISRDNARNTLYLQMSSLKSEDTAMYYCTRDRTTIVVHWYFDVWGTGTTVTVSS
VL: QIVLTQSPAIMSASPGEKVTMTCSASSSLNFMHWYQQKPGTSPKRWIYDTSKLASGVPARFSGSGSGTSYSLTISSMEAEDAATYYCHQRSSTFGGGTKLELKR
notes: Chimeric human IgG1/kappa; also called NPR1-CHAb-SFM-135; chimeric antibody of murine antibody 135
With B8 the EC50 [7] was 2.49 nM, the EC50 [8] was 1.63 nM and the EC50 [10] was 4.39 nM. For the same binder, the EC50 [11] was 3.59 nM.
